Patent publication US20110123554A1 (BIOTEST, published 2011)
Where “and” joins values, the source holds several entries; their conditions need not be identical. Equal entries are not always repeated.

Experiments:
[1] = molecular target: T1, CD138 on the cell surface (human, UniProt P18827 23-310); test: cell-based or functional assay
T1 sequence (looked up): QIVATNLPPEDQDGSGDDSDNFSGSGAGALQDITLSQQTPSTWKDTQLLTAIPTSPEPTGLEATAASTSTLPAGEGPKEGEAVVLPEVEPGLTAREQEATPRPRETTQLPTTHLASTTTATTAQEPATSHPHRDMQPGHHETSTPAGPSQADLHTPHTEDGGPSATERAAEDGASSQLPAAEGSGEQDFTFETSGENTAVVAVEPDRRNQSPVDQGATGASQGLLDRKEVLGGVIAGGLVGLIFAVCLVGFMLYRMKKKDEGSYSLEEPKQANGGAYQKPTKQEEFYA

[2] = molecular target: T2, Soluble CD138 antigen from U-266 cell culture supernatant, biotinylated (human, UniProt P18827 23-245, limits assumed, biotinylated on primary amino groups with EZ-Link Sulfo-NHS-LC-Biotin); test: BIACORE C, biotinylated soluble CD138 on SA chip, conjugate as analyte; mean of three experiments
T2 construct: Captured on a streptavidin SENSOR CHIP SA for the BIACORE assay; Soluble (shed) form; also called bCD138; biotinylated CD138
T2 sequence (looked up): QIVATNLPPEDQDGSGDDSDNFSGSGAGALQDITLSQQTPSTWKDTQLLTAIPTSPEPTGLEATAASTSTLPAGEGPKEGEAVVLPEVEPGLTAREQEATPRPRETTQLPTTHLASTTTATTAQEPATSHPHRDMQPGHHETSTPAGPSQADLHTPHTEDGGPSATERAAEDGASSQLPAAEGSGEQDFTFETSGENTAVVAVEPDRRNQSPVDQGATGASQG

[3] = molecular target: T2, Soluble CD138 antigen from U-266 cell …; test: BIACORE C, biotinylated soluble CD138 on SA chip, conjugate as analyte; single experiment
[4] = molecular target: T1, CD138 on the cell surface; test: FACS on CD138+ OPM-2 cells, fluorescence-labelled secondary antibody, mean fluorescence against concentration
Text: The cells were washed and CD138-bound antibody or conjugates were detected using a fluorescence-labeled secondary antibody in FACS analysis. The mean fluorescence measured in these experiments was plotted against the antibody concentration.

B1: nBT062-SPDB-DM4 (antibody, human IgG4, kappa, V domains shown)
VH: QVQLQQSGSELMMPGASVKISCKATGYTFSNYWIEWVKQRPGHGLEWIGEILPGTGRTIYNEKFKGKATFTADISSNTVQMQLSSLTSEDSAVYYCARRDYYGNFYYAMDYWGQGTSVTVSS
VL: DIQMTQSTSSLSASLGDRVTISCSASQGINNYLNWYQQKPDGTVELLIYYTSTLQSGVPSRFSGSGSGTDYSLTISNLEPEDIGTYYCQQYSKLPRTFGGGTKLEIKR
modifications: maytansinoid DM4 linked by disulfide bond through SPDB linker; residues carrying the drug not stated
[1]
  Sensitivity IC50 (nM), cell line NCI-H929 (MM): 0.38 nM

B2: B-B4-SPP-DM1 (antibody, V domains shown)
VH: B1 VH
VL: DIQMTQSTSSLSASLGDRVTISCSASQGINNYLNWYQQKPDGTVELLIYYTSTLQSGVPSRFSGSGSGTDYSLTISNLEPEDIGTYYCQQYSKLPRTFGGGTKLEIK
modifications: maytansinoid DM1 linked through SPP linker; residues carrying the drug not stated
notes: Variable domains as for B-B4 (see its note)
[2]
  Kd: 2.6 nM
[3]
  Kd: 2.6 nM and 2.7 nM

B3: nBT062 (antibody, human IgG4, kappa, V domains shown)
VH: B1 VH
VL: B1 VL
notes: also called cB-B4; chimeric B-B4
[4]
  EC50 (read off the curve): ~1 nM

B4: nBT062-SPP-DM1 (antibody, human IgG4, kappa, V domains shown)
VH: B1 VH
VL: B1 VL
modifications: maytansinoid DM1 linked through SPP linker; residues carrying the drug not stated
notes: an average of 3.5 DM1 per antibody is stated for nBT062-DM1 conjugates
[4]
  EC50 (read off the curve): ~1 nM

B5: nBT062-SMCC-DM1 (antibody, human IgG4, kappa, V domains shown)
VH: B1 VH
VL: B1 VL
modifications: maytansinoid DM1 linked through non-cleavable SMCC linker; residues carrying the drug not stated
[4]
  EC50 (read off the curve): ~1 nM
